Results reported in patent publication US20100266586A1.
Values belong to the binder of their own block, whether it stands above or below them.

Experiments:
[1] = biological target: FVIII in a pool of normal human plasma (human), P00451; experiment: cell-based or functional assay
[2] = biological target: full length recombinant FVIII (Recombinate, Baxter), P00451; experiment: cell-based or functional assay
Sequence of full length recombinant FVIII (Recombinate, Baxter), P00451 (P00451 20-2351): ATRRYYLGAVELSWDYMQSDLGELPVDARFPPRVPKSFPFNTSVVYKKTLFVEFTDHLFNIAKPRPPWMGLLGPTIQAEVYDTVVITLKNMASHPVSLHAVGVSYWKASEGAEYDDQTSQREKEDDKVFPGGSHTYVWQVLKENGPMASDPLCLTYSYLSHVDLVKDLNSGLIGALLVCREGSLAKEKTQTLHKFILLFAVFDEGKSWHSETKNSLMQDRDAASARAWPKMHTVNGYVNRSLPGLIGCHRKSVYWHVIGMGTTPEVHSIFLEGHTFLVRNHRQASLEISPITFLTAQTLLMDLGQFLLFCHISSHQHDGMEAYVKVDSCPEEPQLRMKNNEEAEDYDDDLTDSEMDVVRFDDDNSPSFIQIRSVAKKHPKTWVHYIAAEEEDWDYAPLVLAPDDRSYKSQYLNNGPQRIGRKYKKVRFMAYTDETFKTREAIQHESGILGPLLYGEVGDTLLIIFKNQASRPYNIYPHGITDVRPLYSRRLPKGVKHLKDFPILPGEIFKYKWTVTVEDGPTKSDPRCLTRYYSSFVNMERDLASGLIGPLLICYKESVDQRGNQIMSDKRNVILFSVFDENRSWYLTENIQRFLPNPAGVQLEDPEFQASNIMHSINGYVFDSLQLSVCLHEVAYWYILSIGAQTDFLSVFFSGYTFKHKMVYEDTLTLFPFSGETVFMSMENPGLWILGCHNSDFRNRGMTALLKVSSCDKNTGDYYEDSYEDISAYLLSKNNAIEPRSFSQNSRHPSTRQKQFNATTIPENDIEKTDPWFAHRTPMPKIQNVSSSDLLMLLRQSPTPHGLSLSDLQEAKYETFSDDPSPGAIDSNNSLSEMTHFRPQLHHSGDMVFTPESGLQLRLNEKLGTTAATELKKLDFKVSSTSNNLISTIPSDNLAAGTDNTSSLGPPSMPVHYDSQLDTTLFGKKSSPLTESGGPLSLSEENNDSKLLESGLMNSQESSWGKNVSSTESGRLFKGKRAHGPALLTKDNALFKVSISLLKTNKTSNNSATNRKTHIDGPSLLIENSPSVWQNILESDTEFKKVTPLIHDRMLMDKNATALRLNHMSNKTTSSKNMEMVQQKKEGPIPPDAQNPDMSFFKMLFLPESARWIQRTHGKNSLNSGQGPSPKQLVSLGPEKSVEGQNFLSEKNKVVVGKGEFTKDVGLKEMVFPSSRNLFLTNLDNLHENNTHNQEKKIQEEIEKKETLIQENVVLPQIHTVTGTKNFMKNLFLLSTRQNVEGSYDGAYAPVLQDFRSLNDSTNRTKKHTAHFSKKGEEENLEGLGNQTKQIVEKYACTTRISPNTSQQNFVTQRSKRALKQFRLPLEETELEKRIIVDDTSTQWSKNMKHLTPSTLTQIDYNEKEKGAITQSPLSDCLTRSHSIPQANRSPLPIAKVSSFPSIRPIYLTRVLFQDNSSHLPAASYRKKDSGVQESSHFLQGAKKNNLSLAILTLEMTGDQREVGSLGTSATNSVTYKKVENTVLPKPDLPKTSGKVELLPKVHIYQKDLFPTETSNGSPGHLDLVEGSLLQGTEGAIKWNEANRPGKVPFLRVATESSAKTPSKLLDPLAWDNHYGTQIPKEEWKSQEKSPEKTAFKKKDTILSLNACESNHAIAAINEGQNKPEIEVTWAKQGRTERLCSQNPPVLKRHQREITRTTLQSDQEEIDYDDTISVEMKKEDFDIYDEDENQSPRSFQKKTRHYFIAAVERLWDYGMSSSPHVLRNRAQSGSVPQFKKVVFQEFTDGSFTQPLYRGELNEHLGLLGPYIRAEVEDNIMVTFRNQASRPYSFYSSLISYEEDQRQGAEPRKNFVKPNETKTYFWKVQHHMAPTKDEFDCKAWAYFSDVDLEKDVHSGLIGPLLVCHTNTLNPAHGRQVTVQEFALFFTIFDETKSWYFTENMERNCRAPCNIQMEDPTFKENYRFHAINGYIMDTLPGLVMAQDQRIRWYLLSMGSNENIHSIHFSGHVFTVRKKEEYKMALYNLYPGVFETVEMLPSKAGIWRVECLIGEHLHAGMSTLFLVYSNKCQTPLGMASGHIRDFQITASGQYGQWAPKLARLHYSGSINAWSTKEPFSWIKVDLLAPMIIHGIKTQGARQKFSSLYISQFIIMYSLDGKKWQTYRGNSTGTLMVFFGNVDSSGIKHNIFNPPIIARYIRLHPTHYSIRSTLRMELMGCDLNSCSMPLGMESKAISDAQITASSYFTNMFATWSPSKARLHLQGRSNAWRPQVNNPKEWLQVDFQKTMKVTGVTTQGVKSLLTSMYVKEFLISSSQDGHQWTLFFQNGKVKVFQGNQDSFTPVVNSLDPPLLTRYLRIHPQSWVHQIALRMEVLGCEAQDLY

Sequence of FVIII in a pool of normal human plasma (human), P00451 (P00451 20-2351): as above

inhibition of FVIII activity (chromogenic assay, normal human plasma) [1]: 90%
maximal inhibition of FVIII activity (Bethesda assay, chromogenic FVIII assay) [1]: 90%
B1: Krix-1 (human monoclonal antibody KRIX-1 produced in a human lymphoblastoid cell line, native glycosylation) (antibody, human IgG4, V domains shown)
VH: QVQLVQSGAEVKKPGASVKVSCKTSGYNFTGYSASGHIFTAYSVHWVRQAPGQGLEWMGRINPNSGATDYAHKFQGRVTMSRDTSISTAYMELSRLTSDDTAMYYCARADNYFDIVTGYTSHYFDYWGRGTLVTVSSASTKGPSVF
VL: EIVLTQSPGTLSLSPGERATLSCRASQSVASAYLAWYQQKPGQAPRLLIYGASSRATDIPHRFSGSGSGTDFTLTISRLEPEDFAVYYCQQYGTSALLTFGGGTKVEIKRTVAAPSVFIFPPS
modifications: here or on the partner: N-linked glycosylation site at Asn47-Thr49, native glycan as made by the lymphoblastoid cell line

inhibition of FVIII activity (chromogenic assay, normal human plasma) [1]: 50%
maximal inhibition (plateau inhibition) of FVIII activity (Bethesda assay, chromogenic FVIII assay) [1]: 50%
B2: deglycosylated KRIX-1 (Krix-1 treated with N-glycosidase-F) (antibody, IgG4, V domains shown)
VH: B1 VH
VL: B1 VL
modifications: here or on the partner: N-linked glycan removed by N-glycosidase-F (2 U/ml, 72 h, 37 C)

inhibition of FVIII activity at a final concentration of RHD5 of 100 microgram/ml (Bethesda assay, plasma) [1]: 97%
inhibition of FVIII activity at a final concentration of RHD5 of 100 microgram/ml (Bethesda assay, full length recombinant FVIII) [2]: 98%
B3: RHD5 (human monoclonal antibody from the lymphoblastoid cell line RHD5) (antibody, V domains shown)
VH: QVQLVQSGAEVKKPGSSVMVSCKASGGTFSSFGISWVRQAPGQGLEWVGGIIPIFGTANTARNFQNRVTITADEFTSTAYIRLRSLRSEDTAVYYCVGGRDAYSFDGFDVWGQGTMVTVSSASTKGPSVFP
VL: SSGLTQPHSVSVSPGQTANITCSRDKLGHKFASWYQQKPGQSPALLIYQDSKRPSGIPERFSGSNSGNTATLTISGTQAMDEADYYCQAWDNTTAVFGGGTKLTVLSQPKAAPSVTLFPPS
